Assay [1] has as its target T1, soluble human FcRn (human, UniProt P55899 24-297; P61769 21-119, biotinylated (Sulfo-NHS-LC-Biotin) in the ELISA; amine-coupled to CM5 chip in SPR).
T1 construct: also called shFcRn; biotinylated shFcRn
Put plainly: SPR, pH 6.
Description: (§1) The following steps were performed to cross-link soluble human or cynomolgus FcRn to the dextran surface of a CM5 sensor chip (Biacore AB, Uppsala, Sweden) by an amine coupling reaction involving 1-ethyl-(3-dimethylaminopropyl)-carbodiimide hydrochloride (EDC) (Biacore AB, Uppsala, Sweden) and N-hydroxysuccinimide (NHS) (Biacore AB, Uppsala, Sweden) as recommended by Biacore (BIAapplications Handbook, version AB, section 4.2, Biacore AB, Uppsala, Sweden). […] Residual sites on the FcRn flow cell were blocked with 1 M ethanolamine hydrochloride pH 8.5 (Biacore AB, Uppsala, Sweden). A control flow cell was blocked with ethanolamine for reference subtraction. For analysis of the monomeric peptides, FcRn was coated to a final density of 4000-5000 response units (RU). For analysis of the peptide dimers, FcRn was coated to a density of 2000-2500 RU. All SPR measurements were performed using a BIACORE 3000 Instrument (Biacore AB Uppsala, Sweden). For measurements done at either pH 6 or pH 7.4, experiments were performed in 50 mM phosphate, 100 mM sodium chloride, 0.01% surfactant P20 (Biacore AB, Uppsala, Sweden).
(§2) Ten, 2-fold dilutions of the peptide were injected over the FcRn-CM5 chip at a rate of 20 μl/min for 2 min. The peptide was dissociated from the chip for 2.5 minutes with buffer. Any remaining peptide was removed from the chip with a 30 second injection of HBS-P buffer (Biacore AB, Uppsala, Sweden) at a rate of 30 μl/min. Sensorgrams were generated and analyzed using BiaEval software version 3.1 (Biacore AB, Uppsala, Sweden). The equilibrium RU observed for each injection was plotted against concentration. The equilibrium KD values were derived by analysis of the plots using the steady state affinity model included in the BiaEval software.

In assay [2] the target is T1, soluble human FcRn. Put plainly: ELISA, competitor human IgG.
Description: (§3) The wells were coated with 100 μl/well of 1 μg/ml biotinylated-shFcRn in Buffer A. The plate was sealed and incubated at 37° C. for 2 hours. Afterwards, the plate washed with 200 μl/well of Buffer B (Buffer B: 100 mM MES pH 6, 150 mM NaCl, 0.5% BSA IgG-free (Jackson ImmunoResearch, West Grove, Pa.), 0.05% Tween-20). […] To allow for mixing, the plate was rocked for 2 minutes, sealed and incubated at 37° C. for 2 hours. […] The plate was covered, incubated for 30 minutes at room temperature and washed 4 times with 200 μl/well of ice-cold buffer B. SureBlue TMB substrate solution (100 μl/well, KPL, Gaithersburg, Md.) was added and the plate was allowed to incubate at room temperature until color developed, which took 5 to 10 minutes. Once color developed, 100 μl/well of TMB stop solution (KPL, Gaithersburg, Md.) was added and the absorbance was measured at 450 nm. The data was plotted as absorbance vs. peptide concentration to derive the inhibitory concentration 50% (IC₅₀) values.
For assay [3], the target named is T1, soluble human FcRn. Put plainly: ELISA, competitor human IgG. The source holds these as a separate data set.
Description: as §3
Assay [4] addresses T1, soluble human FcRn. Put plainly: SPR, pH 6. This is another data set of the same source.
Description: as §1, §2

Like-named read-outs stand apart in the source and are kept apart here. Bridge positions count the residues as written; N and C are the ends. Square brackets hold non-standard residues; d marks the D form. Ends that are not written are not given here. Pen = CC(C)(S)[C@H](N)C(=O)O; Dab = NCC[C@H](N)C(=O)O

T1 sequence (P55899 24-297 limits assumed, chain 1 of 2): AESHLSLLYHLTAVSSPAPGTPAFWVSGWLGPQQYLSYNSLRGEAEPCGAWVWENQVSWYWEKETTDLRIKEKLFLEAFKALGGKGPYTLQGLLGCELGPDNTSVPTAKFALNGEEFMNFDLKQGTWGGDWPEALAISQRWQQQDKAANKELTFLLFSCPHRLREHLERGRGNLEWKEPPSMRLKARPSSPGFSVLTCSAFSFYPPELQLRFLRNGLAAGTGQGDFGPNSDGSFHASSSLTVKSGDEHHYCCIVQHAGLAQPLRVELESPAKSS
T1 sequence (P61769 21-119 limits assumed, chain 2 of 2): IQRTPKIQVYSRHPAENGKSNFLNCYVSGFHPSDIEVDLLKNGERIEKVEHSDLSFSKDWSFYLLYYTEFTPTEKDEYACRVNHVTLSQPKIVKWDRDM

Regarding QRFXTGHFXGLYPCNGP (Pen at 4; Aib at 9; disulfide; C-terminal amide) [Peptide No. 54], binding in assay [1] was put at a Kd of 5.2 µM. The molecule further yielded an IC50 in assay [2] of 17 µM.

B1: Peptide No. 248 (peptide)
peptide: RFXTGXFGGLYPC
modifications: not fully specified; Pen at 3; Thz at 6; Sar at 9; NMeLeu at 10; disulfide; C-terminal amide
With B1, the IC50 in assay [3] was found to be 1.6 µM. Further, in assay [4], the Kd came to 0.84 µM.

B2: Peptide No. 36 (peptide)
peptide: QRFCTG[Dab]FGGLYPCNGP-NH2
modifications: disulfide 4-14; N-terminus assumed
SMILES: CC(C)C[C@@H]1NC(=O)CNC(=O)CNC(=O)[C@H](Cc2ccccc2)NC(=O)[C@H](CCN)NC(=O)CNC(=O)[C@H]([C@@H](C)O)NC(=O)[C@@H](NC(=O)[C@H](Cc2ccccc2)NC(=O)[C@H](CCCNC(=N)N)NC(=O)[C@@H](N)CCC(N)=O)CSSC[C@@H](C(=O)N[C@@H](CC(N)=O)C(=O)NCC(=O)N2CCC[C@H]2C(N)=O)NC(=O)[C@@H]2CCCN2C(=O)[C@H](Cc2ccc(O)cc2)NC1=O
In assay [3], B2 yielded an IC50 greater than 125 µM.

For the molecule RFXTGAFGGLYPC (Pen at 3; Sar at 9; NMeLeu at 10; disulfide; C-terminal amide) [Peptide No. 266], in assay [3], the IC50 was greater than 100 µM. In assay [4], the Kd was 9.9 µM.

B3: Peptide No. 271 (peptide)
peptide: RFXTGXFGGLYPC
modifications: Pen at 3; triazolylAla at 6; Sar at 9; NMeLeu at 10; disulfide; C-terminal amide
B3 came in with an IC50 in assay [3] of 5.7 µM. This counts as single-digit micromolar.

Molecule QRFXTGXFGGLYPCNGP (Pen at 4; Thz at 7; disulfide; C-terminal amide) [Peptide No. 91] gave a 50% inhibitory concentration (IC50) in assay [3] of 44 µM. Against the preceding molecule, the IC50 is about 7.7-fold higher. Turning to RFXTGXFGGLYPC (Pen at 3; 4aminoPhe at 6; Sar at 9; NMeLeu at 10; disulfide; C-terminal amide) [Peptide No. 258], in assay [3], the IC50 is 4.6 µM. The molecule QRFXTGXFGGLYPCNGP (Pen at 4; (1Me)His at 7; disulfide; C-terminal amide) [Peptide No. 138] came in with an IC50 in assay [3] of 3.4 µM. This molecule also had a Kd in assay [4] of 0.74 µM. Turning to QRFXTGHFGYLYPCNGP (Pen at 4; D-Tyr at 10; disulfide; C-terminal amide) [Peptide No. 45], in assay [1], binding was put at a Kd of 1.5 µM.

QRFXTGHFFPLYPCNGP (Pen at 4; D-Phe at 9; D-Pro at 10; disulfide; C-terminal amide) [Peptide No. 150] returned a Kd in assay [1] of 0.72 µM. In addition, the IC50 in assay [2] came out at 5.9 µM.

B4: Peptide No. 155 (peptide)
peptide: QRF[Pen]TGHF[dF]GPYPCNGP-NH2
modifications: disulfide 4-14; N-terminus assumed
SMILES: C[C@@H](O)[C@@H]1NC(=O)[C@@H](NC(=O)[C@H](Cc2ccccc2)NC(=O)[C@H](CCCNC(=N)N)NC(=O)[C@@H](N)CCC(N)=O)C(C)(C)SSC[C@@H](C(=O)N[C@@H](CC(N)=O)C(=O)NCC(=O)N2CCC[C@H]2C(N)=O)NC(=O)[C@@H]2CCCN2C(=O)[C@H](Cc2ccc(O)cc2)NC(=O)[C@@H]2CCCN2C(=O)CNC(=O)[C@@H](Cc2ccccc2)NC(=O)[C@H](Cc2ccccc2)NC(=O)[C@H](Cc2c[nH]cn2)NC(=O)CNC1=O
B4 came in with a Kd in assay [1] of 18.3 µM. Besides, the IC50 in assay [2] was determined as 39 µM. In turn, QRFXTGHFFPLYPCNGP (Pen at 4; D-Phe at 9 (L-Pro at 10); disulfide; C-terminal amide) [Peptide No. 203] came in with a Kd in assay [1] of 3.8 µM. In assay [1], QRFXTGHFFGLYPCNGP (Pen at 4; D-Phe at 9; disulfide; C-terminal amide) [Peptide No. 52] yielded a Kd of 0.51 µM. In addition, in assay [2], the IC50 was determined as 2.8 µM. As to QRFXTGHFHGLYPCNGP (Pen at 4; D-His at 9; disulfide; C-terminal amide) [Peptide No. 50], in assay [2], the IC50 is 3.6 µM. Molecule QRFXTGHFAGLYPCNGP (Pen at 4; D-Ala at 9; Sar at 10; disulfide; C-terminal amide) [Peptide No. 189] yielded a Kd in assay [1] of 0.19 µM. In other words, the sub-micromolar range. Turning to QRFXTGHFGALYPCNGP (Pen at 4; D-Ala at 10; disulfide; C-terminal amide) [Peptide No. 74], the affinity in assay [1], expressed as Kd, was 0.48 µM. Further, the IC50 in assay [2] amounted to 2 µM. Turning to QRFXTGHFFGLYPCNGP (Pen at 4; D-Phe at 9; NMeLeu at 11; disulfide; C-terminal amide) [Peptide No. 153], the Kd in assay [1] was found to be 0.24 µM. The IC50 in assay [2] amounted to 1.3 µM. The molecule QRFXTGHFAGLYPCNGP (Pen at 4; D-Ala at 9; disulfide; C-terminal amide) [Peptide No. 75] displayed a Kd in assay [1] of 0.49 µM. In assay [2], QRFXTGHFRGLYPCNGP (Pen at 4; D-Arg at 9; disulfide; C-terminal amide) [Peptide No. 49] had an IC50 of 4.1 µM. This lies in the single-digit micromolar range.

B5: Peptide No. 151 (peptide)
peptide: QRF[Pen]TGHF[dF][dA]LYPCNGP-NH2
modifications: disulfide 4-14; N-terminus assumed
SMILES: CC(C)C[C@@H]1NC(=O)[C@@H](C)NC(=O)[C@@H](Cc2ccccc2)NC(=O)[C@H](Cc2ccccc2)NC(=O)[C@H](Cc2c[nH]cn2)NC(=O)CNC(=O)[C@H]([C@@H](C)O)NC(=O)[C@@H](NC(=O)[C@H](Cc2ccccc2)NC(=O)[C@H](CCCNC(=N)N)NC(=O)[C@@H](N)CCC(N)=O)C(C)(C)SSC[C@@H](C(=O)N[C@@H](CC(N)=O)C(=O)NCC(=O)N2CCC[C@H]2C(N)=O)NC(=O)[C@@H]2CCCN2C(=O)[C@H](Cc2ccc(O)cc2)NC1=O
Consider B5, for which, in assay [2], the IC50 turned out to be 4.3 µM. Same read-out and setting: in the case of QRFXTGHFPGLYPCNGP (Pen at 4; D-Pro at 9; disulfide; C-terminal amide) [Peptide No. 48] it was 5 µM.

B6: Peptide No. 149 (peptide)
peptide: QRF[Pen]TGHF[dA][dP]LYPCNGP-NH2
modifications: disulfide 4-14; N-terminus assumed
SMILES: CC(C)C[C@@H]1NC(=O)[C@H]2CCCN2C(=O)[C@@H](C)NC(=O)[C@H](Cc2ccccc2)NC(=O)[C@H](Cc2c[nH]cn2)NC(=O)CNC(=O)[C@H]([C@@H](C)O)NC(=O)[C@@H](NC(=O)[C@H](Cc2ccccc2)NC(=O)[C@H](CCCNC(=N)N)NC(=O)[C@@H](N)CCC(N)=O)C(C)(C)SSC[C@@H](C(=O)N[C@@H](CC(N)=O)C(=O)NCC(=O)N2CCC[C@H]2C(N)=O)NC(=O)[C@@H]2CCCN2C(=O)[C@H](Cc2ccc(O)cc2)NC1=O
In assay [2], B6 had an IC50 of 3.7 µM.

Molecule QRFXTGHFAALYPCNGP (Pen at 4; D-Ala at 9 and 10; disulfide; C-terminal amide) [Peptide No. 148] gave a Kd in assay [1] of 0.45 µM.

For QRFXTGHFPPLYPCNGP (Pen at 4; D-Pro at 9 and 10; disulfide; C-terminal amide) [Peptide No. 152], in assay [2], the IC50 is 21 µM. That is a double-digit micromolar value.

B7: Peptide No. 261 (peptide)
peptide: RFXTGXFGGLYPC
modifications: Pen at 3; PropargylGly at 6; Sar at 9; NMeLeu at 10; disulfide; C-terminal amide
With B7, in assay [3], the IC50 is 160 µM.

As for RFXTGXFGGLYPC (Pen at 3; Orn at 6; Sar at 9; NMeLeu at 10; disulfide; C-terminal amide) [Peptide No. 254], binding in assay [4] was characterised by a dissociation constant (Kd) of 1.3 µM.

B8: Peptide No. 269 (peptide)
peptide: RFXTGXFGGLYPC
modifications: Pen at 3; Thz(Me) (N-methyl-thiazolium) at 6; Sar at 9; NMeLeu at 10; disulfide; -CONH2
As for B8, in assay [3], the IC50 turned out to be 2.4 µM.

B9: Peptide No. 262 (peptide)
peptide: RFXTGXFGGLYPC
modifications: Pen at 3; 2-PyrrolidinylAla at 6; Sar at 9; NMeLeu at 10; disulfide; C-terminal amide
In the case of B9, the affinity in assay [4], expressed as Kd, was 8.4 µM.

The values above are taken from US20070254831A1 (published 2007).
